Data taken from article doi:10.1101/2022.04.20.488894.

Target: α-Synuclein (UniProt P37840)
Experiment: cross-linking

P intra (intra-protein character) of the DSBU cross-link Lys-21 to Lys-32: 77%
Substance: α-Synuclein (from UniProt P37840 1-140) (natural protein)
